B1: Irga6 (IIGP1), wild type, recombinant, GST cleaved off [mouse] / itself (parent)
chain: MGQLFSSPKSDENNDLPSSFTGYFKKFNTGRKIISQEILNLIELRMRKGNIQLTNSAISDALKEIDSSVLNVAVTGETGSGKSSFINTLRGIGNEEEGAAKTGVVEVTMERHPYKHPNIPNVVFWDLPGIGSTNFPPNTYLEKMKFYEYDFFIIISATRFKKNDIDIAKAISMMKKEFYFVRTKVDSDITNEADGKPQTFDKEKVLQDIRLNCVNTFRENGIAEPPIFLLSNKNVCHYDFPVLMDKLISDLPIYKRHNFMVSLPNITDSVIEKKRQFLKQRIWLEGFAADLVNIIPSLTFLLDSDLETLKKSMKFYRTVFGVDETSLQRLARDWEIEVDQVEAMIKSPAVFKPTDEETIQERLSRYIQEFCLANGYLLPKNSFLKEIFYLKYYFLDMVTEDAKTLLKEICL

Variants of: B1
Assay: light scattering (homo-oligomerisation)
Conditions: with itself; 80 µM Irga6; 10 mM GTP; 37°C; peak of the time course, at about 10 min; read off a plot

| Variant | response |
| --- | --- |
| chain 1 E97R | 9 a. u. |

Same assay, conditions: with itself; 80 µM Irga6; 10 mM GTP; 37°C; peak of the time course, at about 15 min; read off a plot

| Variant | response |
| --- | --- |
| chain 1 E64K | 8.2 a. u. |

From PMC3042988, “The activation mechanism of Irga6, an interferon-inducible GTPase contributing to mouse resistance against Toxoplasma gondii” (BMC Biology, 2011)
